What was measured:
[1] = test system: Iron regulatory protein 2 (rIRP2); test: EMSA; conditions: aminoallyl-UTP-ATTO-680 incorporated in the labeled probe; competitor unmodified; 100 ng probe heated 3 min at 95 C, 120 ng His-IRP, 15 min room temperature, then 50 ug sodium heparin 10 min; 5% native acrylamide gel, 1x TBE; binding buffer …
[2] = test system: Iron regulatory protein 1 (rIRP1); test: EMSA; conditions: aminoallyl-UTP-ATTO-680 incorporated in the labeled probe; competitor unmodified; 100 ng probe heated 3 min at 95 C, 120 ng His-IRP, 15 min room temperature, then 50 ug sodium heparin 10 min; 5% native acrylamide gel, 1x TBE; binding buffer …

FTL IRE WT was tested. Which binding signal (% of WT signal) [1] did it give?
Its binding signal (% of WT signal) is 100.

What about the binding signal (% of WT signal) [2] of the same substance?
Its binding signal (% of WT signal) is 100.
